Among the data in article PMC7225089, “A long lost key opens an ancient lock: Drosophila Myb causes a synthetic multivulval phenotype in nematodes” (Biology Open, 2020) are Kd values, retold here.

Residue numbers refer to the chain shown, from its start. Numbers in names are those of the source.

In test [1] the target is T1, C. elegans LIN9-LIN52 heterodimeric Myb-binding domain complex (C. elegans, UniProt P30630 442-559; Q10120 75-139).
T1 construct: also called nematode LIN9-LIN52; ceLIN9; source: E. coli, co-expressed, purified (glutathione-sepharose, anion exchange, TEV cleavage, Superdex 200); not shown: GST, N-terminal, cleaved
T1 sequence (looked up) 1: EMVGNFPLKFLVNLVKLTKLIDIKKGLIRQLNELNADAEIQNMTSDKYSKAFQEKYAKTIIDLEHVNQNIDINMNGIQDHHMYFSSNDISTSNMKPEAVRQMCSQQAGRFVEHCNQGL
T1 sequence (looked up) 2: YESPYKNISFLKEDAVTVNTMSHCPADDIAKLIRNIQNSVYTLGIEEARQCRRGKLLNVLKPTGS
In words: ITC; Myb fragment (~500 μM) in the syringe injected into LIN9-LIN52 heterodimer (~25–50 μM) at 25°C; 20 mM Tris, 150 mM NaCl, 1 mM beta mercaptoethanol, pH 8.0; MicroCal VP-ITC; triplicate. Conditions: both partners purified. On the technique in general: In ITC the heat of successive injections is recorded.

Test [2] concerns the target Drosophila LIN9-LIN52 heterodimeric Myb-binding domain complex (D. melanogaster). The test is described as above.

B1: Drosophila melanogaster Myb MuvB-binding domain (residues 602-632), wild type (domain or fragment, D. melanogaster, UniProt P04197 602-632, looked up)
chain: VIDPKWARVACGKSRDQMFMEEQAYACLKNL
notes: Expressed from the pGEX vector and 'purified as described for the LIN9-LIN52 complex'; also called Drosophila Myb; dmMyb; source: E. coli, purified (glutathione-sepharose, anion exchange, TEV cleavage, Superdex 200); not shown: GST, N-terminal, cleaved
What is called Kd is the free concentration of one partner at which half of the binding sites on the other are occupied at equilibrium, for simple one-to-one binding. Higher therefore signals a looser complex. Take B1: the Kd was 7 µM in test [1] and 3 µM in test [2].

B2: Drosophila melanogaster Myb MuvB-binding domain (residues 602-632), K606A/W607A double-substitution mutant (domain or fragment, D. melanogaster, UniProt P04197 602-632, looked up)
chain: B1 chain with K5A, W6A
notes: Expressed from the pGEX vector and 'purified as described for the LIN9-LIN52 complex'; also called KW; source: E. coli, purified (glutathione-sepharose, anion exchange, TEV cleavage, Superdex 200); not shown: GST, N-terminal, cleaved
With B2, the values for the Kd in test [1] and in test [2] were 70 µM and 41 µM, respectively.
